Measured values from the DeepSol protein solubility set.

Assay: soluble on expression in E. coli; label from the status in PepcDB or PDB records

| Sequence | soluble on expression in E. coli |
| --- | --- |
| MSFDGFFLHHIVEELRSELVNGRIQKINQPFEQELVLQIRSNRQSHRLLLSAHPVFGRIQLTQTTFENPAQPSTFIMVLRKYLQGALIESIEQVENDRIVEITVSNKNEIGDHIQATLIIEIMGKHSNILLVDKSSHKILEVIKHVGFSQNSYRTLLPGSTYIAPPSTKSLNPFTIKDEKLFEILQTQELTAKNLQSLFQGLGRDTANELERILVSEKLSAFRNFFNQETKPCLTETSFSPVPFANQVGEPFANLSDLLDTYYKDKAERDRVKQQASELIRRVENELQKNRHKLKKQEKELLATDNAEEFRQKGELLTTFLHQVPNDQDQVILDNYYTNQPIMIALDKALTPNQNAQRYFKRYQKLKEAVKYLTDLIEETKATILYLESVETVLNQAGLEEIAEIREELIQTGFIRRRQREKIQKRKKLEQYLASDGKTIIYVGRNNLQNEELTFKMARKEELWFHAKDIPGSHVVISGNLDPSDAVKTDAAELAAYFSQGRLSNLVQVDMIEVKKLNKPTGGKPGFVTYTGQKTLRVTPDSKKIASMKKS | not soluble |
| MSLAPRPRILICEDDPDIARLLNLMLEKGGFDSDMVHSAAQALEQVARRPYAAMTVDLNLPDQDGVSLIRALRRDSRTRDLAIVVVSANAREGELEFNSQPLAVSTWLEKPIDENLLILSLHRAIDNMAEGKPRILHVEDDLDIQRIAAAIAQNFATFEFACTLQEARDQLASHHYDLVLLDLTLKDGSGWELLSTIEALDPAPPVVVFSASKLNMMESQRVEAVLVKADTSNEELIRVLQRVLDDSLWGTVDSPLSEGHHHHHH | soluble |
| MSQIAGYFSSDSGVYPNPVKDVLNIKHEGDFGVRIFDFSGRLVLSMENTRMIGVKVLTAGAYVIKLMTQGSTPAERFIKL | not soluble |
| MIRLIFLDIDKTLIPGYEPDPAKPIIEELKDMGFEIIFNSSKTRAEQEYYRKELEVETPFISENGSAIFIPKGYFPFDVKGKEVGNYIVIELGIRVEKIREELKKLENIYGLKYYGNSTKEEIEKFTGMPPELVPLAMEREYSETIFEWSRDGWEEVLVEGGFKVTMGSRFYTVHGNSDKGKAAKILLDFYKRLGQIESYAVGDSYNDFPMFEVVDKVFIVGSLKHKKAQNVSSIIDVLEVIKHHHHHH | soluble |
| MPFTLGQRWISDTESELGLGTVVAVDARTVTLLFPSTGENRLYARSDSPVTRVMFNPGDTITSHDGWQMQVEEVKEENGLLTYIGTRLDTEESGVALREVFLDSKLVFSKPQDRLFAGQIDRMDRFALRYRARKYSSEQFRMPYSGLRGQRTSLIPHQLNIAHDVGRRHAPRVLLADEVGLGKTIEAGMILHQQLLSGAAERVLIIVPETLQHQWLVEMLRRFNLRFALFDDERYAEAQHDAYNPFDTEQLVICSLDFARRSKQRLEHLCEAEWDLLVVDEAHHLVWSEDAPSREYQAIEQLAEHVPGVLLLTATPEQLGMESHFARLRLLDPNRFHDFAQFVEEQKNYRPVADAVAMLLAGNKLSNDELNMLGEMIGEQDIEPLLQAANSDSEDAQSARQELVSMLMDRHGTSRVLFRNTRNGVKGFPKRELHTIKLPLPTQYQTAIKVSGIMGARKSAEDRARDMLYPERIYQEFEGDNATWWNFDPRVEWLMGYLTSHRSQKVLVICAKAATALQLEQVLREREGIRAAVFHEGMSIIERDRAAAWFAEEDTGAQVLLCSEIGSEGRNFQFASHMVMFDLPFNPDLLEQRIGRLDRIGQAHDIQIHVPYLEKTAQSVLVRWYHEGLDAFEHTCPTGRTIYDSVYNDLINYLASPDQTEGFDDLIKNCREQHEALKAQLEQGRDRLLEIHSNGGEKAQALAESIEEQDDDTNLIAFAMNLFDIIGINQDDRGDNMIVLTPSDHMLVPDFPGLSEDGITITFDREVALAREDAQFITWEHPLIRNGLDLILSGDTGSSTISLLKNKALPVGTLLVELIYVVEAQAPKQLQLNRFLPPTPVRMLLDKNGNNLAAQVEFETFNRQLNAVNRHTGSKLVNAVQQDVHAILQLGEAQIEKSARALIDAARNEADEKLSAELSRLEALRAVNPNIRDDELTAIESNRQQVMESLDQAGWRLDALRLIVVTHQ | soluble |
| MEDNIRIGKIILNLSNKISRQLNKEASAFGLTGVQAKLIGFIHHRSSTQDIFQKDIEEEFDIRRSSVTSALQLMEKKGYIKRVSVSDDARLKKIVLTEKGLELDKKVYDAIIKLENSLINEFDNDELHVLIDSLDRISKKIVDLEHHHHHH | soluble |
| GKNYVRSELKRLNHLCRDFRRDEVHAMDKLLFDQLCQIQLLLGTQAEVHIVSGYRSPATNKQLRSKSKGVAKKSYHMSGQAIDFRLDGVSLKKIREAAISLQAGGVGYYPKSQFIHIDTGPVRQWVGA | not soluble |
| MGHHHHHHSHMANSAGSMANSAGSMKEGKHFVLVHGACHGGWSWYKLKPLLEAAGHKVTALDLAASGTDLRKIEELRTLYDYTLPLMELMESLSADEKVILVGHSLGGMNLGLAMEKYPQKIYAAVFLAAFMPDSVHNSSFVLEQYNERTPAENWLDTQFLPYGSPEEPLTSMFFGPKFLAHKLYQLCSPEDLALASSLVRPSSLFMEDLSKAKYFTDERFGSVKRVYIVCTEDKGIPEEFQRWQIDNIGVTEAIEIKGADHMAMLCEPQKLCASLLEIAHKYN | soluble |
| MGVEQILKRKTGVIVGEDVHNLFTYAKEHKFAIPAINVTSSSTAVAALEAARDSKSPIILQTSNGGAAYFAGKGISNEGQNASIKGAIAAAHYIRSIAPAYGIPVVLHSDHCAKKLLPWFDGMLEADEAYFKEHGEPLFSSHMLDLSEETDEENISTCVKYFKRMAAMDQWLEMEIGITGGEEDGVNNENADKEDLYTKPEQVYNVYKALHPISPNFSIAAAFGNCHGLYAGDIALRPEILAEHQKYTREQVGCKEEKPLFLVFHGGSGSTVQEFHTGIDNGVVKVNLDTDCQYAYLTGIRDYVLNKKDYIMSPVGNPEGPEKPNKKFFDPRVWVREGEKTMGAKITKSLETFRTTNTL | soluble |
| MRRKSVLYLEVADQIKEDILSGKYPVGTFLPTETELEELFNVSKITIRRAIEMLATEEFVEKKSGRGTTVLSNRPYNKLSKAGTFTEFLNESGQKVTKKVLQVENLTLSKEMPAYQFLGEEVVHLSRLYLIDEQPYIYFNYYLPAAMKDVSLTEYKEESLYRLMDRHAIEIYKFEDRFEVATLTEAEQKMLQTTETTGLKRIRRSLSPTGRCVEYSEAIYNTKIHPYVIEYEA | not soluble |
| MLDPGPNPAPRPSRDRAPHAVVIGSGFGGLAAAVRLGAKGYRVTVLEKLDKAGGRAYVHKQDGFSFDAGPTIVTAPYLFEELWKLCGKRMSDDITLKPMSPFYRIRFDDGTHFDYSDDRDAVLDQIAKFCPDDVPAYDRFMAASHEIFKVGFEQLGDQPFSHFTDMLKIAPAMIKLESYRSVYGLVAKHFKDPKLRQVFSFHPLLIGGNPFMSSSVYCLITYLEKQWGVHSAMGGTGALVTGLVNLIEGQGNTIRYNQDVRQIVVENGTACGVKLADGEVIKADIVVSNADSASTYRYLLPPETRKRWTDAKIEKSRYSMSLFVWYFGTKRRYEDVKHHTILLGPRYKELISDIFSRKVVAEDFSLYLHRPTATDPSLAPQGCDTFYVLSPVPNLLGDTDWHTKAETYRASIAKMLGATVLPDLENQIATSKITTPIDFQDRLSSFRGAAFGLEPVLWQSAWFRPHNQSEDVKRLYLVGAGTHPGAGLPGVLSSARVLDALVPEADSLVTSLEHHHHHH | not soluble |
| MSLTEDLNKRVEQAAQGITPQTKPDERRRYLGSLRERVLVRLNNTEVKDPKLTALFLKHITDFKGYTILINGNITDDGFLGEVEAACSKEDIPFTLVNNETAKTGPEDTAILVVAKTAINHPRVEINQVYPPEMPKTELSAPSKKHESFWHHLFHKDEGHHHHHH | soluble |
| MSLNADTLEDIKKAGVIKAATEMQFPPFDFLEGDKYVGVDRDLMDEVAKELGVKVEYIDLPWTSVLPGLEAGKFDLVIAPVTITKERLARYAFTLPISEGTAALMKRADDDSITKPEDIAGKTIGGGKGTSQLGQIKEYAAALPGKVEFKEYVDSNQSYADLAAGRVDASVNSYPNLAYAAAQRPETFAVVLPPFGKTTYFSWVSRLGEKDASLVEAVNAALLKLGEDGRMSAIHEKWFGKGVDLPKEGHHHHHH | soluble |
| MGSDKIHHHHHHMLDSPLSLLAGVGAEIAAGNLIPFLGPDVLTIEAEPPVPVGARTLSLALASKVGVPGRIKNNLWHSAQYIETHKHRVTLDKLMAAFFQPIPEPNALHRWLAGLPKLPMVVDTWYDGAMKAAFEAVGRESWGIVQGCSKARRLDGGVWFRAVSPDGAIVAEDVAESWRTVLYKPHGAAQPTGDVLVSDSDYVEVLTDIDIGTPIPQLVKDRRSNRGFVFLGCRFYDQILRTFARQISKRCGGPRYAVVPEELTRNELKFLEVEGITPITMPLAEAVALMTAAKTA | not soluble |
| MILDTDYITENGKPVIRVFKKENGEFKIEYDRTFEPYFYALLKDDSAIEDVKKVTAKRHGTVVKVKRAEKVQKKFLGRPIEVWKLYFNHPQDVPAIRDRIRAHPAVVDIYEYDIPFAKRYLIDKGLIPMEGDEELTMLAFAIATLYHEGEEFGTGPILMISYADGSEARVITWKKIDLPYVDVVSTEKEMIKRFLRVVREKDPDVLITYNGDNFDFAYLKKRCEELGIKFTLGRDGSEPKIQRMGDRFAVEVKGRIHFDLYPVIRRTINLPTYTLEAVYEAVFGKPKEKVYAEEIAQAWESGEGLERVARYSMEDAKVTYELGREFFPMEAQLSRLIGQSLWDVSRSSTGNLVEWFLLRKAYKRNELAPNKPDERELARRRGGYAGGYVKEPERGLWDNIVYLDFRSLYPSIIITHNVSPDTLNREGCKEYDVAPEVGHKFCKDFPGFIPSLLGDLLEERQKIKRKMKATVDPLEKKLLDYRQRAIKILANSFYGYYGYAKARWYCKECAESVTAWGREYIEMVIRELEEKFGFKVLYADTDGLHATIPGADAETVKKKAKEFLKYINPKLPGLLELEYEGFYVRGFFVTKKKYAVIDEEGKITTRGLEIVRRDWSEIAKETQARVLEAILKHGDVEEAVRIVKEVTEKLSKYEVPPEKLVIHEQITRDLRDYKATGPHVAVAKRLAARGVKIRPGTVISYIVLKGSGRIGDRAIPADEFDPTKHRYDAEYYIENQVLPAVERILKAFGYRKEDLRYQKTKQVGLGAWLKVKGKK | soluble |
| MSLKKPALKYCGIRSLKDLQLAAESQADYLGFIFAESKRKVSPEDVKKWLNQVRVEKQVAGVFVNESIETMSRIAKSLKLDVIQLHGDEKPADVAALRKLTGCEIWKALHHQDNTTQEIARFKDNVDGFVIDSSVKGSRGGTGVAFSWDCVPEYQQAAIGKRCFIAGGVNPDSITRLLKWQPEGIDLASGIEKNGQKDQNLMRLLEERMNRYVSISEEGHHHHHH | soluble |
| MGSDKIHHHHHHMPHLFYGTAQNGEVIFDEREAHHMRVVRLKEGDVIEATDGNGFSYTCILKSLKKKTAAAKIVKVEEKEKEPTEKLSVVVPIGRWERTRFLIEKCVELGVDEIFFHKFERSQHEISLDKAKIVVREAAKQCKRYLFPKVSFLEKLEFSGNVITLDLDASQNLLDANLEGSITVVVGPEGGFSEKERELLRSSTTIVSLGKKILRFETAAILTVGYIALKKQKI | soluble |
| MVYSVPMMCAQDLRRSAMLDVVVAGGGYVGLSAAVAIKQAAPHLNVQVIEAAPDDVWKKDVRASAVIAAATRMLDVFGIWNEIEPEAQPIHKMVVTDSKTADPVRPVFLTFDGAVEEGRPFAHMVPNVAMVSALRGLCERIGIKIRHGISVSGFTAGPQSTAITLSDGTSLEARLLIACDGVRSALRDMAGIKTVHWAYDQSGIVTTVEHERPHEGCAEEHFLPSGPFAVLPLKGNRSSLVWTERTADAVRLVASDDLVFEEELERRFGHKLGPVRPVGPRRAFPLGLTLARSFVAPRFALAGDAAHGIHPISGQGLNLGFKDVAALAETVVEADRLGLDIGSLNVLERYQSWRRFDTLRMGVTTDVLNRLFSNDVGPIRVMRDFGLGVVDRLPGLKSYFIGQAAGTTDANAPRLLAGEALLEHHHHHH | not soluble |
| NAKVKRIRLGNLKKTVKLYDLIDEFHSTTLENLKNGLRTGRGYCIEINKQVVSMAKSTSENRTHAMIIGVGTHPKYRAKGLATKCLIKLCSELLRENKIPCLFYDNEEAGKIYKKLGFENIGKWGIYSK | not soluble |
